# Laboratory results from patent CN113929780A.
# Numbering of substitutions follows the chain as printed.
# B1: BY6-3 (antibody, IgG1, V domains shown)
# VH: QVQLVQSGSELKKPGASVKISCKASGYSFTNYGMNWVRQAPGQGLKWMGWINTNTGEPTYAEEFKGRFVFSLDTSVSTAYLQISSLKAEDTAVYYCARLGFGNAMDYWGQGTLVTVSS
# VL: DIVMTQSPDSLAVSLGERATMNCKSSQTLLNSGNQKNYLTWYQQKPGQPPKLLIYWATTRESGVPDRFSGSGSGTDFTLTISSLQAEDVAVYYCQNDYTYPLTFGAGTKLEIK
# B2: BY6-4 (antibody, IgG1, V domains shown)
# VH: B1 VH
# VL: B1 VL with Q35N, T99S
# B3: BY6-1 (antibody, IgG1, V domains shown)
# VH: B1 VH
# VL: B1 VL with T99S
# What was measured:
# [1] = biological target: 人Claudin18.2 (human Claudin18.2, 密蛋白18.2) (human) (UniProt P56856); experiment: relative binding activity against the control antibody, after strong-acid stress
# [2] = biological target: 人Claudin18.2 (human Claudin18.2, 密蛋白18.2) (human) (UniProt P56856); experiment: relative binding activity against the control antibody, after repeated freezing and thawing
Binder,相对结合活性 (relative to the control antibody BY0-0) [1],相对结合活性 (relative to the control antibody BY0-0) [2]
B1,80%,–
B2,80%,–
B3,–,> 80%
